Results: patent publication US20260258115A1 (MAPP BIOPHARMACEUTICAL, published 2026)

Target: RSV F on RSV subtype B virus (mKate-RSV B 18537) (respiratory syncytial virus B 18537, UniProt P13843 26-574)
Assay: cell-based or functional assay

Binder | Neut IC50 subtype B [µg/mL]
ADI-19487 (antibody, V domains shown) VH: QVTLKESGPALVKPTQTLTLTCTFSGLSISTSGMCVSWIRQPPGKALEWLARIDWDDDKYYSTSLKTRLTISKDTSKNQVVLTMTNMDPVDTATYYCARINYYDSSGYYVYYFDYWGQGTLVTVSS VL: not shown | 7.96
ADI-14370 (antibody, V domains shown, full-length IgG; also called Ab 38) VH: EVQLVESGGGVVQPGKSLRLSCAASGFSFSTFAMHWVRQAPGKGLEWVAVISYDGSNKFYADSVKGRFTISRDSSKNTLYLQMNSLRAEDTAVYYCARGGYSSGWYVTHFDYWGQGTLVTVSS VL: QSVLTQPPSASGSPGQSVTISCTGTSSDVGGYNYVSWYQQHPGKAPKLMIYEVSKRPSGVPDRFSGSKSGNTASLTVSGLQAEDEADYYCSSYAGSNNLYVFGTGTKLTVL | 1.38

Target: RSV F on RSV-A2 virus (Respiratory Syncytial Virus (RSV-A2), UniProt P03420 26-574)
Assay: cell-based or functional assay

Binder | Neutralization IC50 (RSV subtype A) [µg/mL]
ADI-41505 (antibody, V domains shown) VH: QVQLQQSGAGLLKPSETLSLTYVVYGGSFSGYYWSWIRQPPGKGLEWVGDINHSTTTNYNPSLESRITISIDTSKNQFSLNLSSVTAADSAVYYCARGPKECTSSSCDRFGVDYFYYGMDVWGRGTTVTVSS VL: QSVLTQPPSVSGAPGQRVTISCTGSSANIGAGYDVHWYQQFPGTAPKLLIFGNSNRPSGVPDRFSGSKSGTSASLAITGLQAGDEADYYCQSYDGTLGGWVFGGGTQLTVL | > 25
ADI-41522 (antibody, V domains shown) VH: QVQLVQSGAEVKKPGSSVKVSCKASGGTFNNFPISWVRQAPGQGLEWMGGIIPMFGRANYAQKFQGRVTITADESTTTVYMALRSLRSEDTAVYYCARPDYDVLTGFEGAFDIWGQGTMVTVSS VL: QSALTQPASVSGSPGQLITISCTGTSRDVGGYNYVSWYQQHPGKAPKLMIYDVTNRPSGVSNRFSGSKSGNTASLTISGLQSEDEADYYCSSYTSTTTWVFGGGTKLTVL | > 25
ADI-41467 (antibody, V domains shown) VH: EVQLVESGGGLVKPGGSLRLSCAASGFSFSSYNMNWVRQAPGKGLEWVSSISGGSSFVNYADSVKGRFTISRDNAKNSLYLQMSSLKAEDTAIYYCARDPVYCSAASCSAYFDSWGQGSLVTVSS VL: QSVLTQPPSVSGAPGQRVTISCTGSSSNIGAGYDVHWYQQLPGTAPKLLIYGNNNRPSGVPDRFSGFKSGSSASLAITGLQAEDEADYYCQSYDIGLSDSHVVFGGGTQLTVL | > 25
ADI-41519 (antibody, V domains shown) VH: QVQLVESGPGLVKPSETLSLTCNVSGGSIITSGSYWGWIRQPPGKGLTWIGSISYSGTTYYNPSLRSRLTISLDTSRNHFSLQLTSVSAADTAVYYCARAFYEVWTGSEIPGDFDRWGQGTLVTVSS VL: EIVLTQSPGTLSLSPGERATLSCRASQSVSSSYLAWYQQKPGQAPRLLIYGASSRAIDIPDRFSGSGSGTDFTLTISRLEPEDFAVYYCQQFRRSPWTFGQGTKVDIK | > 25
ADI-41520 (antibody, V domains shown) VH: EVQLLESGGGVVRPGGSLRLSCAASGFSFDDYGMTWVRQAPGKGLEWVSGINWNGISTDYADSVKGRFTISRDNAKNSVYLQMNSLRAEDTALYYCARIGGVVVIASTAYYYGMDVWGQGTTVTVSS VL: DIQLTQSPSSLSAYVGDRVTITCRASQSIRNHLNWYQQKPGKAPQLLIYTASSLQDGVPSRFSGSGSGTDFTLAISSLQPEDFATYYCQQSHSMPPTFGQGTRLEIK | > 25
ADI-41542 (antibody, V domains shown) VH: EVQLVESGVAVKKPGESLKISCKGSGYNFDSFWIGWVRQLPGKGLEWMGIIFPGDSDTRYGPSFQGQVTISADKSINTAYLQWRSLKASDTAMYYCARHGLGGYDNSGYNLWGHGTMVTVSS VL: DIVMTQSPSSLSASVGDRVTITCQASHDISTSLNWYQQKPGKAPNLLISDASTLERGVPSRFSGGGSGTEFTFTISSLQPEDIATYYCQQFENLPITFGQGTRLEIK | 0.69
ADI-41515 (antibody, V domains shown) VH: QVQLVESGGGLVQPGGSLRLSCAASGFTFSDYAMSWVRQAPGKGLVWVSSISGSGKFTYYEDSLRGRVTISRDNSKNTVYLHMNSLRTEDTALYYCARLRIPVINEVDGAMDVWGQGTTVTVSS VL: SYELTQLPSVSVSPGQTARITCSGDALPKKFAYWYQQKSGQAPVLVIYEDTGRPSGIPERFSGSTSGTTATLTINGAQVEDEGDYYCYSADSSDNQGVFGGGTKVTVL | > 25
ADI-41518 (antibody, V domains shown) VH: EVQLVESGGGLVKPGGSLRLSCAASGFTFSSYSMNWVRQAPGKGLEWVSSISSSSSYINYADSVKGRFTISRDNAKNSLYLQMNSLRAEDTALYYCARDLGYCSDTSCTPGIGYWGQGTLVTVSS VL: QPVLTQPPSVSGAPGQRVTISCTGSSSNIGAGYDVHWYQQLPGTAPKLLIYGNSNRPSGVPDRFSGSKSGTSASLAITGLQAEDEADYYCQSYDSGLSPWVFGGGTKLTVL | > 25
ADI-43643 (antibody, V domains shown) VH: QVQLVQSGGGLVKPGGSLRLSCAASGFTFSSYSMNWVRQAPGKGLEWVSSISSSSSYIYYADSVKGRFTISRDNAKNSLYLQMNSLRAEDTAVYYCARVLSGYSYGYDYWGQGTLVTVSS VL: QSVLTQPPSVSGAPGQRVTISCTGSSSNIGAGYDVHWYQQLPGTAPKLLIYGNSNRPSGVPDRFSGSKSGTSASLAITGLQAEDEADYYCQSYDSSLSGSVFGTGTKVTVL | > 25

Target: RSV F on RSV-A2 virus (Respiratory syncytial virus (RSV-A2))
Assay: cell-based or functional assay

Binder | Neutralization IC50 (RSV subtype A) [µg/mL]
ADI-41342 (antibody, V domains shown) VH: QVQLVQSGAEVKKPGSSVKVSCKASGGTLTSYGVSWVRQAPGQGLEWMGGIIPIFGTVDYAQKFQGRVTITADEPTSTAYMELSSLTSDDTAVYYCARDPWVSGPVEFYYYFDVWGRGTLVTVSS VL: DIVLTESPATLSLSPGERATLSCRASQSINNRYLAWYQQKPGQAPRLLIFGASSRATGIPDRFSGSGSGTDFTLTISRLEPEDFAVYYCQQYGSTPPTFGQGTKVEIK | > 25
ADI-41341 (antibody, V domains shown) VH: QVQLVQSGAEVKKPGSSVKVSCKASGGTFSSYATHWVRQAPGQGLEWMGGIIPIFGRATYAQKFQGRVTISADESTSTAYMELSSLRSEDTAVYYCARGRDDRSGDHIAFLYHYGMDVWGQGSTVTVSS VL: QSVLTQPPSVSAAPGQKVSISCSGSSSNIGINHASWYQHLPGTAPKLLIYDNNKRPSGIPDRFSGSKSGTSATLGISGLQTGDEAAYYCGTWDTGLSAVVFGGGTKLTVL | > 25
ADI-41348 (antibody, V domains shown) VH: QVQLQESGPGLVKPSQTLSLTCAVSGGSISSGGYYWSWIRQHPGKGLEWIGYIYYSGSTYYNPSLKSPVTISVDTSKNQFSLKLTSVTAADTAVYYCARGDYYFDGSGRTTAAFDIWGQGTMVTVSS VL: DIQVTQSPSSLSASVGDRVTITCRASQSISTFLNWYQQKPGRAPKLLIYDASNLQSGVPSRVSGSGSGTDFTLTISSLHPEDFATYYCQQSYTTPYTFGQGTKVDIK | 0.0765
ADI-41349 (antibody, V domains shown) VH: EVQLLESGGGLVQPGRSLRLSCTGSGFTFGDYAMNWVRQAPGKGLEWVGLIRSKDYGGTTEFAASLKGRLTISRDDSKSIAYLQMHSLKTEDSAVYYCTRAHLTDYTDINGYQYYFDYWGQGSPVTVSS VL: DIQMTQSPSSLSASVGDRVTITCQASQDISNFLNWYQQRPGKAPKLLIHDASNLETGVPSRFSGSGSRTEFTFTISSLQPEDIGTYYCQHYDNFPYTFGQGTKVEIK | > 25
ADI-41343 (antibody, V domains shown) VH: EVQLVESGGGLVKPGGSLRLSCAASGFTFSSYYMNWVRQAPGKGLEWVSSISGGSSYISYADSVKGRFTISRDNAKNSLYLQMNSLRAEDTAVYYCARVDTPMVRGYYFDYWGQGTLVTVSS VL: QSVLTQPPSVSGAPGRRVTISCTGSSSNIGAGYDVHWYQQLPGTAPKLLIFANSNRPSGVPDRFSGSKSGTSASLAITGLQAEDEADYYCQSYDSSLSGSVFGGGTKVTVL | 0.177
ADI-41344 (antibody, V domains shown) VH: EVQLVESGGGLVKPGGSLRLSCAASGSSFSSYYMNWVRQAPGKGLEWVSSISSSSTYIDYADSVKGRFTISRDNAKNSLFLQMNSLRAEDTAVYYCARVSSPMIRGYYLDYWGQGTLVTVSS VL: QPVLTQPPSVSGAPGQRVTISCTGSSSNIGAGYDVHWYQQLPGTAPKLVIHGNSNRPSGVPDRFSGSKSGTSASLAITGLQGEDEADYYCQSYDSSLSGSVFGGGTKLTVL | 0.0637
ADI-41347 (antibody, V domains shown) VH: EVQLVESGPGLVKPSGTLSLTCAVSGGSVSSDNWWSWVRQPPGKGIEWIGEIYPSGGTNYNPSLNSRVTISVDKSKNQFSLKLNSVTAADTAIYYCARAPFDSSGYHSNSVWGQGTLVTVSS VL: ETTLTQSPLSLPVTPGEPASISCRSSQSLLHSNGHNYLDWYVQKPGQSPQLLIYLSSNRASGVPDRFSGSGSGTDFTLRISRVEAEDVGVYYCMQPLQTPQTFGQGTKVEIK | > 25
ADI-41345 (antibody, V domains shown) VH: EVQLVQSGAEVRKPGESLKISCKGSGYNFASYWIAWVRQMPGKGLEWMGIIFPGDSDTRYSPSFQGQVTISVDKSISTAYLQWSSLKASDTAIYYCATSKYTFGYLDWGQGTLVTVSS VL: NFMLTQPHSVSESPGKTVTISCTRSSGSIASNYVQWYQQRPGSAPTTVIYEDNQRPSGVPDRFSGSIDSSSNSASLTISGLKTEDEADYYCQSYDTSNQVFGTGTKVTVL | > 25
ADI-41346 (antibody, V domains shown) VH: QVQLVQSGPEVKKPGESLKISCTLSASGLTTYWIGWVRQMPAKGLEWMGIIFPGDSDTRYSPSFQGQVTISADKSTNTAYLQWSGLKASDTAIYYCATLQTPVTGLDQWGQGTLVTVSS VL: NFMLTQPHSVSESPGKTVTISCTRSSGNIARSYVQWYQQRPGSAPTTVIHEDDQRPSGVPDRFSGSIDTSSNSASLTISGLKTEDEADYYCQSYDPSNYVFGTGTKVTVL | > 25
ADI-41340 (antibody, V domains shown) VH: QVQLVQSGAEVKTPGSSVKVSCKASGGTFRSYPITWVRQAPGQGLEWMGTVIPVFDTVNYAPKFQGRVSITADESTNTAYMELSSLRSDDSAVYYCARDLGWLRPMTTVTSPHFDYWGQGTLVTVSS VL: QSVLTQPASVSGSPGQSITISCTGTSSDVGGYDFVSWYQQHPGKAPKLMISEVTDRPSGVSNRFSGSKSGNTASLTISGLQAEDEADYYCTSYTSSRTYVFGTGTKLTVL | > 25

Target: T1, RSV prefusion F (preF), subtype B (respiratory syncytial virus subtype B)
T1 construct: also called Prefusion subtype B
Assay: BLI, IgG

Binder | Kd [nM]
ADI-14370 (antibody, V domains shown, full-length IgG; also called Ab 38) VH: EVQLVESGGGVVQPGKSLRLSCAASGFSFSTFAMHWVRQAPGKGLEWVAVISYDGSNKFYADSVKGRFTISRDSSKNTLYLQMNSLRAEDTAVYYCARGGYSSGWYVTHFDYWGQGTLVTVSS VL: QSVLTQPPSASGSPGQSVTISCTGTSSDVGGYNYVSWYQQHPGKAPKLMIYEVSKRPSGVPDRFSGSKSGNTASLTVSGLQAEDEADYYCSSYAGSNNLYVFGTGTKLTVL | 4.18
